The text below walks through data of ChEMBL document CHEMBL1155874, “Carbonic anhydrase activators: Activation of the human cytosolic isozyme III and membrane-associated isoform IV with amino acids and amines” (Bioorg Med Chem Lett, 2008).

Substrate in data set [1]: N[C@@H](Cc1c[nH]cn1)C(=O)O
The data set is described as follows: (§1) Activity of human recombinant CA3 at 10 uM stopped-flow CO2 hydration method.

Substrate in data set [2]: N[C@H](Cc1c[nH]cn1)C(=O)O
The description is as §1.

Substrate in data set [3]: N[C@@H](Cc1c[nH]cn1)C(=O)O
The data set is described as follows: (§2) Activity of human recombinant truncated CA4 at 10 uM stopped-flow CO2 hydration method.

Substrate in data set [4]: N[C@H](Cc1c[nH]cn1)C(=O)O
Described as §2.

B1: Carbonic anhydrase 3 (Homo sapiens), P07451 (protein)
chain: MAKEWGYASHNGPDHWHELFPNAKGENQSPVELHTKDIRHDPSLQPWSVSYDGGSAKTILNNGKTCRVVFDDTYDRSMLRGGPLPGPYRLRQFHLHWGSSDDHGSEHTVDGVKYAAELHLVHWNPKYNTFKEALKQRDGIAVIGIFLKIGHENGEFQIFLDALDKIKTKGKEAPFTKFDPSCLFPACRDYWTYQGSFTTPPCEECIVWLLLKEPMTVSSDQMAKLRSLLSSAENEPPVPLVSNWRPPQPINNRVVRASFK
B1: the kcat in data set [1] amounted to 1.8 ×10⁴ /s; in data set [2], 16.9 ×10⁴ /s.

B2: Carbonic anhydrase 4 (Homo sapiens), P22748 (protein)
chain: MRMLLALLALSAARPSASAESHWCYEVQAESSNYPCLVPVKWGGNCQKDRQSPINIVTTKAKVDKKLGRFFFSGYDKKQTWTVQNNGHSVMMLLENKASISGGGLPAPYQAKQLHLHWSDLPYKGSEHSLDGEHFAMEMHIVHEKEKGTSRNVKEAQDPEDEIAVLAFLVEAGTQVNEGFQPLVEALSNIPKPEMSTTMAESSLLDLLPKEEKLRHYFRYLGSLTTPTCDEKVVWTVFREPIQLHREQILAFSQKLYYDKEQTVSMKDNVRPLQQLGQRTVIKSGAPGRPLPWALPALLGPMLACLLAGFLR
In the case of B2, the kcat in data set [3] was 4.3 ×10⁶ /s; in data set [4], 3.8 ×10⁶ /s.
